Earlier results as cited in patent US20240269065A1, “Implantable Device for Release of Glucagon-Like Peptide-1 Receptor Agonist” (Celanese EVA Performance Polymers LLC, priority 2023, published 2024).

Target: GLP-1 receptor (Homo sapiens, UniProt P43220)
Conditions: in vitro studies; compared with native GLP-1 and exenatide

GLP-1 receptor, sequence (P43220 24-463, species assumed): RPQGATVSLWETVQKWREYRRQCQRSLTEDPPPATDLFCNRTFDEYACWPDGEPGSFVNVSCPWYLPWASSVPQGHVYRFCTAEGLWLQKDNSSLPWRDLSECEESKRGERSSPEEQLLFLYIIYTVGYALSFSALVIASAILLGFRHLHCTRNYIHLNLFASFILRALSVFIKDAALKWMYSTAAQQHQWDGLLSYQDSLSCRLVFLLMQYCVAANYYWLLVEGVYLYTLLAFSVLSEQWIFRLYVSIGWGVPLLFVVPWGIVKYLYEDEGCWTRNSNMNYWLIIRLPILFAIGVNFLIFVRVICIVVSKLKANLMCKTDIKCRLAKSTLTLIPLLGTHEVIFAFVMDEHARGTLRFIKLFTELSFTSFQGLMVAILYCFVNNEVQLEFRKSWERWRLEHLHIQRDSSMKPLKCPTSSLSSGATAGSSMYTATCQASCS

Lixisenatide
affinity for the GLP-1 receptor relative to native GLP-1 and exenatide: four times greater affinity
